These results are taken from the supplement of paper PMC7877785.

± gives the uncertainty stated by the source.

A short description of the data set: self-splicing fitness, log relative to wild type (ln ratio); higher = more splicing; Tetrahymena group I intron in knt gene, E. coli kanamycin selection, DiMSum; sequences stand for … in CUCUCU…GGAGGGAAAAGUUAUCAGGCAUGCACCUGGUAGCUAGUCUUUAAACCAAUAGAUUGCAUCGGUUUAAAAGGCAAGACCGUCAAAUUGCGGGAAAGGGGUCAACAGCCGUUCAGUACCAAGUCUCAGGGGAAACUUUGAGAUGGCCUUGCAAAGGGUAUGGUAAUAAGCUGACGGACAUGGUCCUAACCACGCAGCCAAGUCCUAAGUCAACAGAUCUUCUGUUGAUAUGGAUGCAGUUCACAGACUAAAUGUCGGUCGGGGAAGAUGUAUUCUUCUCAUAAGAUAUAGUCGGACCUCUCCUUAAUGGGAGCUAGCGGAUGAAGUGAUGCAACACUGGAGCCGCUGGGAACUAAUUUGUAUGCGAAAGUAUAUUGAUUAGUUUUGGAGUACUCGUGGUCG
A digest of the protocol:
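The eight P1ex-region nucleotides of an intron in the knt kanamycin-resistance gene on pET-22b(+) were all randomised and the library put into E. coli BL21(DE3). Six replicate transformations were grown overnight at 37°C or 30°C on LB agar with or without 25 μg/mL kanamycin, together with 100 μg/mL carbenicillin, 50 μM IPTG and 0.2% rhamnose. Colonies were pooled and amplicon-sequenced on an Illumina HiSeq 2500. Fitness from DiMSum is the error-weighted combination of wild-type-normalised replicate fold changes, kanamycin over none.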

For the sequence UGUGAGCAAUAUUACGGGCG, the “self-splicing fitness (ln)” value is, setting by setting: (30 °C) -0.245 ± 0.1; (37 °C) 0.233 ± 0.16.

Consider UUCGAGCAAUAUUACGGGGU, for which the “self-splicing fitness (ln)” value (30 °C) is -2.88 ± 0.35.

With UACAAGCAAUAUUACGCACG, the “self-splicing fitness (ln)” value (30 °C) was -1.29 ± 0.094 and the “self-splicing fitness (ln)” value (37 °C) was 0.0257 ± 0.1.

Take CAACAGCAAUAUUACGCUCU: the “self-splicing fitness (ln)” value by setting is: (30 °C) -1.33 ± 0.079; (37 °C) -0.581 ± 0.1.

As to AACAAGCAAUAUUACGUGGG, the “self-splicing fitness (ln)” value (30 °C) is -2.93 ± 0.12 and the “self-splicing fitness (ln)” value (37 °C) is -2.95 ± 0.13.

Regarding UCCCAGCAAUAUUACGUUCA, the “self-splicing fitness (ln)” value reads like this: (30 °C) -0.991 ± 0.093; (37 °C) -0.824 ± 0.1.

ACACAGCAAUAUUACGAGCU: the “self-splicing fitness (ln)” value (30 °C) was -0.901 ± 0.077 and the “self-splicing fitness (ln)” value (37 °C) is -0.406 ± 0.085.

Consider AUUUAGCAAUAUUACGAAGU, for which the “self-splicing fitness (ln)” value was -1.91 ± 0.23 (30 °C) and -1.24 ± 0.18 (37 °C).

As for GUCCAGCAAUAUUACGAGAG, the “self-splicing fitness (ln)” value reads like this: (30 °C) -1.15 ± 0.078; (37 °C) 0.117 ± 0.077.

For CCCAAGCAAUAUUACGGUGU, the “self-splicing fitness (ln)” value by setting is: (30 °C) -2.71 ± 0.089; (37 °C) -1 ± 0.084.

In the case of UGUGAGCAAUAUUACGGUAA, the “self-splicing fitness (ln)” value (30 °C) was -2.56 ± 0.31 and the “self-splicing fitness (ln)” value (37 °C) was -2.25 ± 0.3.

Consider UCCAAGCAAUAUUACGGUCA, for which the “self-splicing fitness (ln)” value reads like this: (30 °C) -0.259 ± 0.06; (37 °C) 0.0746 ± 0.065.

On to ACCCAGCAAUAUUACGUCAU, for which the “self-splicing fitness (ln)” value was -1.84 ± 0.049 (30 °C) and -0.414 ± 0.059 (37 °C).

AAUAAGCAAUAUUACGCACA: the “self-splicing fitness (ln)” value reads like this: (30 °C) -0.471 ± 0.099; (37 °C) 0.253 ± 0.13.

Consider CAACAGCAAUAUUACGUAUA, for which the “self-splicing fitness (ln)” value reads like this: (30 °C) -2.76 ± 0.12; (37 °C) -1.55 ± 0.11.

With GACGAGCAAUAUUACGGAGA, the “self-splicing fitness (ln)” value (37 °C) is -2.9 ± 0.38.

AGAAAGCAAUAUUACGUCGU: the “self-splicing fitness (ln)” value is -1.9 ± 0.059 (30 °C) and -0.452 ± 0.081 (37 °C).

In the case of UCCAAGCAAUAUUACGGGAA, the “self-splicing fitness (ln)” value is -1.07 ± 0.078 (30 °C) and -0.547 ± 0.079 (37 °C).

Turning to ACGCAGCAAUAUUACGGCGG, the “self-splicing fitness (ln)” value is -2.14 ± 0.074 (30 °C) and -1.91 ± 0.14 (37 °C).

Consider GAUUAGCAAUAUUACGGGGA, for which the “self-splicing fitness (ln)” value (30 °C) is -2.86 ± 0.19 and the “self-splicing fitness (ln)” value (37 °C) was -2.71 ± 0.2.

Consider AGAAAGCAAUAUUACGUCCG, for which the “self-splicing fitness (ln)” value (30 °C) was -0.86 ± 0.096 and the “self-splicing fitness (ln)” value (37 °C) was determined as 0.226 ± 0.14.

Take AACCAGCAAUAUUACGAAAA: the “self-splicing fitness (ln)” value (30 °C) was -1.54 ± 0.099 and the “self-splicing fitness (ln)” value (37 °C) is -1.3 ± 0.1.

Take AUUAAGCAAUAUUACGCUUC: the “self-splicing fitness (ln)” value by setting is: (30 °C) -3.05 ± 0.19; (37 °C) -2.03 ± 0.18.

Consider AUAGAGCAAUAUUACGGGUA, for which the “self-splicing fitness (ln)” value (30 °C) is -2.89 ± 0.16 and the “self-splicing fitness (ln)” value (37 °C) was -2.53 ± 0.24.

As for ACCGAGCAAUAUUACGCCUA, the “self-splicing fitness (ln)” value (37 °C) was -1.93 ± 0.28.

In the case of UGGUAGCAAUAUUACGCCUU, the “self-splicing fitness (ln)” value was -0.729 ± 0.15 (30 °C) and 0.426 ± 0.18 (37 °C).

On to GCCUAGCAAUAUUACGCGGU, for which the “self-splicing fitness (ln)” value (30 °C) is -4.03 ± 0.28 and the “self-splicing fitness (ln)” value (37 °C) is -3 ± 0.26.

Consider UUCCAGCAAUAUUACGGGUG, for which the “self-splicing fitness (ln)” value runs as follows: (30 °C) -0.109 ± 0.058; (37 °C) -0.15 ± 0.076.

Take CCGAAGCAAUAUUACGUCGA: the “self-splicing fitness (ln)” value is -2.38 ± 0.17 (30 °C) and -1.74 ± 0.12 (37 °C).

In the case of CAGAAGCAAUAUUACGACAU, the “self-splicing fitness (ln)” value (30 °C) was -3.128 ± 0.02 and the “self-splicing fitness (ln)” value (37 °C) was -1.87 ± 0.034.

With UCUAAGCAAUAUUACGAUCC, the “self-splicing fitness (ln)” value was -3.87 ± 0.39 (30 °C) and -2.5 ± 0.36 (37 °C).

On to GAAUAGCAAUAUUACGCACA, for which the “self-splicing fitness (ln)” value by setting is: (30 °C) -0.518 ± 0.15; (37 °C) 1.18 ± 0.18.

CCCGAGCAAUAUUACGUAAC: the “self-splicing fitness (ln)” value is, setting by setting: (30 °C) -3.43 ± 0.23; (37 °C) -3.05 ± 0.28.

With GGUGAGCAAUAUUACGUCAA, the “self-splicing fitness (ln)” value (30 °C) is -3.58 ± 0.46 and the “self-splicing fitness (ln)” value (37 °C) is -2.78 ± 0.31.

Regarding AGGAAGCAAUAUUACGCAAU, the “self-splicing fitness (ln)” value was -2.58 ± 0.25 (30 °C) and -2 ± 0.21 (37 °C).

CAUAAGCAAUAUUACGCUGC: the “self-splicing fitness (ln)” value was -3.86 ± 0.21 (30 °C) and -3.23 ± 0.3 (37 °C).

Turning to UAGGAGCAAUAUUACGGAAG, the “self-splicing fitness (ln)” value runs as follows: (30 °C) -2.94 ± 0.18; (37 °C) -1.51 ± 0.26.

As to UUAUAGCAAUAUUACGGCCA, the “self-splicing fitness (ln)” value is -1.18 ± 0.31 (30 °C) and -0.579 ± 0.33 (37 °C).

Turning to AGUGAGCAAUAUUACGAGCG, the “self-splicing fitness (ln)” value is, setting by setting: (30 °C) -0.459 ± 0.1; (37 °C) -0.0795 ± 0.13.

Turning to CGAAAGCAAUAUUACGGUUU, the “self-splicing fitness (ln)” value (30 °C) is -2.51 ± 0.095 and the “self-splicing fitness (ln)” value (37 °C) is -1.51 ± 0.11.

Turning to CUCCAGCAAUAUUACGCCAG, the “self-splicing fitness (ln)” value is -3.19 ± 0.37 (30 °C) and -2.08 ± 0.46 (37 °C).

Take CAUUAGCAAUAUUACGGUCU: the “self-splicing fitness (ln)” value was -3.48 ± 0.31 (30 °C) and -2.22 ± 0.29 (37 °C).

As for AGAGAGCAAUAUUACGCCGG, the “self-splicing fitness (ln)” value (30 °C) is -1.82 ± 0.25.

For GUCGAGCAAUAUUACGAAAG, the “self-splicing fitness (ln)” value was -2.57 ± 0.29 (30 °C) and -2.2 ± 0.35 (37 °C).

As for UGACAGCAAUAUUACGAGUU, the “self-splicing fitness (ln)” value by setting is: (30 °C) -3.89 ± 0.2; (37 °C) -2.86 ± 0.19.

As to CUAGAGCAAUAUUACGAGAA, the “self-splicing fitness (ln)” value was -2.62 ± 0.35 (30 °C) and -2.5 ± 0.45 (37 °C).

With CUGCAGCAAUAUUACGAACG, the “self-splicing fitness (ln)” value is 0.237 ± 0.087 (30 °C) and -0.269 ± 0.08 (37 °C).

Regarding UGCAAGCAAUAUUACGAGCU, the “self-splicing fitness (ln)” value runs as follows: (30 °C) -0.536 ± 0.089; (37 °C) -0.0945 ± 0.1.

With UUGGAGCAAUAUUACGUUGA, the “self-splicing fitness (ln)” value by setting is: (30 °C) -3.57 ± 0.3; (37 °C) -0.895 ± 0.26.

With CACAAGCAAUAUUACGGUUU, the “self-splicing fitness (ln)” value reads like this: (30 °C) -3.34 ± 0.14; (37 °C) -2.59 ± 0.19.

For the sequence ACGCAGCAAUAUUACGGAAU, the “self-splicing fitness (ln)” value (30 °C) is -2.27 ± 0.1 and the “self-splicing fitness (ln)” value (37 °C) was -2.07 ± 0.14.

With CCGUAGCAAUAUUACGACUU, the “self-splicing fitness (ln)” value (30 °C) was -2.98 ± 0.37 and the “self-splicing fitness (ln)” value (37 °C) was -2.67 ± 0.41.

As to CAUGAGCAAUAUUACGCAUA, the “self-splicing fitness (ln)” value was -2.29 ± 0.26 (30 °C) and -1.78 ± 0.23 (37 °C).

In the case of AACGAGCAAUAUUACGGUGC, the “self-splicing fitness (ln)” value was -3.15 ± 0.3 (30 °C) and -2.69 ± 0.33 (37 °C).

CCUUAGCAAUAUUACGAUUC: the “self-splicing fitness (ln)” value runs as follows: (30 °C) -3.68 ± 0.25; (37 °C) -3.28 ± 0.47.

For the sequence GUCUAGCAAUAUUACGCCUG, the “self-splicing fitness (ln)” value (37 °C) is -3.47 ± 0.41.

Turning to CCCUAGCAAUAUUACGUGUC, the “self-splicing fitness (ln)” value by setting is: (30 °C) -3.29 ± 0.13; (37 °C) -2.97 ± 0.19.

With CAAUAGCAAUAUUACGCGCC, the “self-splicing fitness (ln)” value (37 °C) is -1.04 ± 0.44.

For the sequence CUGCAGCAAUAUUACGUUGG, the “self-splicing fitness (ln)” value was -2.82 ± 0.14 (30 °C) and -3.09 ± 0.27 (37 °C).

For ACCAAGCAAUAUUACGUAUG, the “self-splicing fitness (ln)” value is -3.59 ± 0.13 (30 °C) and -2.53 ± 0.12 (37 °C).

Take UGACAGCAAUAUUACGUGGA: the “self-splicing fitness (ln)” value by setting is: (30 °C) -3 ± 0.21; (37 °C) -2.31 ± 0.2.

In the case of CUGGAGCAAUAUUACGCUCA, the “self-splicing fitness (ln)” value is, setting by setting: (30 °C) -3.4 ± 0.36; (37 °C) -0.5 ± 0.3.
